In patent publication US20260176343A1 (UCL BUSINESS, published 2026):

biological target: ROR1 on Jeko-1 cells (UniProt Q01973 30-937, limits assumed); test: cell-based or functional assay

Row | Binder | maximum target cell death, long-term (120 h) killing assay, 1 µg/mL, 1:10 effector to target ratio
1 | NVG-111 (bispecific antibody) QVQLVESGGGVVQPGRSLRLSCAASGFIFSEHNMAWVRQAPGKGLEWVATISDDGRNTYYRDSMRGRFTISRDNSKNTLYLQMNSLRAEDTAVYYCTSHRYNLFDSWGQGTMVTVSSGGGGSGGGGSGGGGSDIQMTQSPSSLSASVGDRVTITCKASQNIDRYLNWYQQKPGKAPKRLIYNTNKLQTGVPSRFSGSGSGTEFTLTISSLQPEDFATYYCLQYNSLPLTFGQGTKLEIKSGSGGGGSQVQLVQSGAEVKKPGSSVKVSCKASGYTFTRYTMHWVRQAPGQGLEWMGYINPSRGYTNYNQKFKDRVTITADKSTSTAYMELSSLRSEDTAVYYCARYYDDHYCLDYWGQGTMVTVSSVEGGSGGSGGSGGSGGVDDIQMTQSPSSLSASVGDRVTITCSASSSVSYMNWYQQKPGKAPKRLIYDTSKLASGVPSRFSGSGSGTEFTLTISSLQPEDFATYYCQQWSSNPFTFGQGTKVEIKHHHHHH | 60.5%
2 | AR_TCE-1 (bispecific antibody) QVQLVESGGGVVQPGRSLRLSCAASGFIFSEHNMAWVRQAPGKGLEWVATISDDGRNTYYRDSMRGRFTISRDNSKNTLYLQMNSLRAEDTAVYYCTSHRYNLFDSWGQGTMVTVSSGGGGSGGGGSGGGGSDIQMTQSPSSLSASVGDRVTITCKASQNIDRYLNWYQQKPGKAPKRLIYNTNKLQTGVPSRFSGSGSGTEFTLTISSLQPEDFATYYCLQYNSLPLTFGQGTKLEIKSGGGGSIEPDSESQGGGGSQVQLVQSGAEVKKPGSSVKVSCKASGYTFTRYTMHWVRQAPGQGLEWMGYINPSRGYTNYNQKFKDRVTITADKSTSTAYMELSSLRSEDTAVYYCARYYDDHYCLDYWGQGTMVTVSSVEGGSGGSGGSGGSGGVDDIQMTQSPSSLSASVGDRVTITCSASSSVSYMNWYQQKPGKAPKRLIYDTSKLASGVPSRFSGSGSGTEFTLTISSLQPEDFATYYCQQWSSNPFTFGQGTKVEIKHHHHHH | 58.7%
3 | AR_TCE-3 (bispecific antibody) QVQLVESGGGVVQPGRSLRLSCAASGFIFSEHNMAWVRQAPGKGLEWVATISDDGRNTYYRDSMRGRFTISRDNSKNTLYLQMNSLRAEDTAVYYCTSHRYNLFDSWGQGTMVTVSSGGGGSGGGGSGGGGSDIQMTQSPSSLSASVGDRVTITCKASQNIDRYLNWYQQKPGKAPKRLIYNTNKLQTGVPSRFSGSGSGTEFTLTISSLQPEDFATYYCLQYNSLPLTFGQGTKLEIKSGGGGSIEPDSLEEGGGGSQVQLVQSGAEVKKPGSSVKVSCKASGYTFTRYTMHWVRQAPGQGLEWMGYINPSRGYTNYNQKFKDRVTITADKSTSTAYMELSSLRSEDTAVYYCARYYDDHYCLDYWGQGTMVTVSSVEGGSGGSGGSGGSGGVDDIQMTQSPSSLSASVGDRVTITCSASSSVSYMNWYQQKPGKAPKRLIYDTSKLASGVPSRFSGSGSGTEFTLTISSLQPEDFATYYCQQWSSNPFTFGQGTKVEIKHHHHHH | 55.7%
